Measurements taken from article PMC3329556, “Insights into the Mechanism of Bovine CD38/NAD+Glycohydrolase from the X-Ray Structures of Its Michaelis Complex and Covalently-Trapped Intermediates” (PLoS ONE, 2012).

B1: bCD38 (bovine CD38/NAD+glycohydrolase) (Bos taurus) (protein)
chain: YKWHYSGLNRWHGAGSTADFQKIIQERCDTYTQTIRPGSRSRNCQAIRQAFMSAFISKDPCKATKEDYNSLINLAPPTVPCGQQVFWSKTKELAHEYAKRRRLMTLEDTLLGYLADGLRWCGEPGSSDLNIWSCPDWRKDCRTNYLSVFWEVLSERFAESACNTVRVVLNGSLENAFDSMSIFGRVEAPNLRPQVELEAWLVHDTGKPPSDSCSGSSIRKLKSILDGRNVKFRCMDNLSRDQFLQRS
notes: soluble ecto-domain residues 32-278 (first 31 residues removed), alpha-factor secretion signal, Pichia pastoris GS115 or X33, mono-N-glycosylated at Asn201, back-to-back homodimer in crystal
B2: bCD38 (bovine CD38/NAD+glycohydrolase) (Bos taurus; E218Q) (protein)
chain: YKWHYSGLNRWHGAGSTADFQKIIQERCDTYTQTIRPGSRSRNCQAIRQAFMSAFISKDPCKATKEDYNSLINLAPPTVPCGQQVFWSKTKELAHEYAKRRRLMTLEDTLLGYLADGLRWCGEPGSSDLNIWSCPDWRKDCRTNYLSVFWEVLSERFAESACNTVRVVLNGSLENAFDSMSIFGRVQAPNLRPQVELEAWLVHDTGKPPSDSCSGSSIRKLKSILDGRNVKFRCMDNLSRDQFLQRS
notes: as for B1
B3: bCD38 (bovine CD38/NAD+glycohydrolase) (Bos taurus; W168A) (protein)
chain: YKWHYSGLNRWHGAGSTADFQKIIQERCDTYTQTIRPGSRSRNCQAIRQAFMSAFISKDPCKATKEDYNSLINLAPPTVPCGQQVFWSKTKELAHEYAKRRRLMTLEDTLLGYLADGLRWCGEPGSSDLNIWSCPDARKDCRTNYLSVFWEVLSERFAESACNTVRVVLNGSLENAFDSMSIFGRVEAPNLRPQVELEAWLVHDTGKPPSDSCSGSSIRKLKSILDGRNVKFRCMDNLSRDQFLQRS
notes: as for B1
B4: bCD38 (bovine CD38/NAD+glycohydrolase) (Bos taurus; S185A) (protein)
chain: YKWHYSGLNRWHGAGSTADFQKIIQERCDTYTQTIRPGSRSRNCQAIRQAFMSAFISKDPCKATKEDYNSLINLAPPTVPCGQQVFWSKTKELAHEYAKRRRLMTLEDTLLGYLADGLRWCGEPGSSDLNIWSCPDWRKDCRTNYLSVFWEVLAERFAESACNTVRVVLNGSLENAFDSMSIFGRVEAPNLRPQVELEAWLVHDTGKPPSDSCSGSSIRKLKSILDGRNVKFRCMDNLSRDQFLQRS
notes: as for B1
B5: bCD38 (bovine CD38/NAD+glycohydrolase) (Bos taurus; K120A) (protein)
chain: YKWHYSGLNRWHGAGSTADFQKIIQERCDTYTQTIRPGSRSRNCQAIRQAFMSAFISKDPCKATKEDYNSLINLAPPTVPCGQQVFWSATKELAHEYAKRRRLMTLEDTLLGYLADGLRWCGEPGSSDLNIWSCPDWRKDCRTNYLSVFWEVLSERFAESACNTVRVVLNGSLENAFDSMSIFGRVEAPNLRPQVELEAWLVHDTGKPPSDSCSGSSIRKLKSILDGRNVKFRCMDNLSRDQFLQRS
notes: as for B1
B6: bCD38 (bovine CD38/NAD+glycohydrolase) (Bos taurus; R216A) (protein)
chain: YKWHYSGLNRWHGAGSTADFQKIIQERCDTYTQTIRPGSRSRNCQAIRQAFMSAFISKDPCKATKEDYNSLINLAPPTVPCGQQVFWSKTKELAHEYAKRRRLMTLEDTLLGYLADGLRWCGEPGSSDLNIWSCPDWRKDCRTNYLSVFWEVLSERFAESACNTVRVVLNGSLENAFDSMSIFGAVEAPNLRPQVELEAWLVHDTGKPPSDSCSGSSIRKLKSILDGRNVKFRCMDNLSRDQFLQRS
notes: as for B1

substrate: NC(=O)c1ccc[n+]([C@@H]2O[C@H](COP(=O)(O)OP(=O)(O)OC[C@H]3O[C@@H](n4cnc5c(N)ncnc54)[C@H](O)[C@@H]3O)[C@@H](O)[C@H]2O)c1; assay: radiometric HPLC assay, initial rates, Michaelis-Menten fit; format: biochemical, Bos taurus; details: 10 mM potassium phosphate pH 7.4, 37°C, 14C-labelled NAD+ tracer
Description: radiometric HPLC assay, initial rates, Michaelis-Menten fit on bCD38 (bovine CD38/NAD+glycohydrolase)

B1 and B2 are within 1.5-fold of each other in Km: 17.1 ± 0.3 µM for the first, 24.7 ± 5.7 µM for the second.

B3 and B4 are within error of each other in Km: 24.6 ± 4.2 µM for the first, 18.7 ± 2.8 µM for the second.

B5 and B6 are within error of each other in Km: 27.7 ± 3.4 µM for the first, 22.9 ± 3.4 µM for the second.

First: B1
Second: B2
The kcat of the first is 1900-fold higher: 57.9 ± 1.9 s⁻¹ for the first, 0.03 ± 0.002 s⁻¹ for the second.

Going from B3 to B4, the kcat rises from 19.6 ± 0.9 s⁻¹ to 38.2 ± 1.3 s⁻¹ (1.9-fold).

Compared with B5, B6 is 1.9-fold lower in kcat: 47.1 ± 2.1 s⁻¹ for the first, 25.4 ± 1.1 s⁻¹ for the second.

Compared with B1, B2 is 2800-fold lower in kcat/Km: 3.38e+06 ± 130000 M⁻¹ s⁻¹ for the first, 1210 ± 300 M⁻¹ s⁻¹ for the second.

Compared with B3, B4 is 2.5-fold higher in kcat/Km: 800000 ± 140000 M⁻¹ s⁻¹ for the first, 2.04e+06 ± 310000 M⁻¹ s⁻¹ for the second.

Going from B5 to B6, the kcat/Km falls from 1.7e+06 ± 220000 M⁻¹ s⁻¹ to 1.1e+06 ± 170000 M⁻¹ s⁻¹ (1.5-fold).
